According to patent publication US20120225437A1:

Biological target: Rat MBL-A (mannan-binding lectin A) (rat) (UniProt P19999)
Assay: SPR, MBL immobilised, MASP-1 at 100 nM, equivalent concentrations of NaCl up to 550 mM

- percent of maximal binding in the presence of NaCl (ionic strength control): > 60%
Substance: MASP-1ent, modified form of rat MASP-1 in which the zymogen cleavage site has been replaced by an enterokinase recognition site (DDDDK) (from UniProt Q8CHN8 25-704) (enzyme)
